Measurements taken from patent US20110142868A1 (CHIRALIX B V, published 2011).
Numbered stars: 1 amine (or outer) side, 2 acyl side, 3 side chain; on linkers, the order of the positions; unused ones are H or OH. Square brackets hold non-standard residues; d marks the D form. Ends that are not written are not given here. * marks the point of attachment. O(CA) = ornithine chloroamidine, N=C(CCl)NCCC[C@H](N[*:1])C(=O)[*:2]; Orn(fluoroacetimidoyl) = N=C(CF)NCCC[C@H](N)C(=O)O; 2Naphthylsulfonyl = O=S(=O)(c1ccc2ccccc2c1)*

T1: papain (UniProt P00784 134-345)
T1 sequence (looked up): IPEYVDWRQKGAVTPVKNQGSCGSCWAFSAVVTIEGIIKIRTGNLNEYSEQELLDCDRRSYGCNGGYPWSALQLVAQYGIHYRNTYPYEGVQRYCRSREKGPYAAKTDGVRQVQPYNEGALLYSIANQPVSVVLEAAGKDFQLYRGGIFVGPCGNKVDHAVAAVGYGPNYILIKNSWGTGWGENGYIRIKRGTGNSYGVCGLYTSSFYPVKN

B1: 0837-30FA (peptide)
peptide: 2Naphthylsulfonyl-KWH[Orn(fluoroacetimidoyl)]DFF-NH2
SMILES: N=C(CF)NCCC[C@H](NC(=O)[C@H](Cc1c[nH]cn1)NC(=O)[C@H](Cc1c[nH]c2ccccc12)NC(=O)[C@H](CCCCN)NS(=O)(=O)c1ccc2ccccc2c1)C(=O)N[C@@H](CC(=O)O)C(=O)N[C@@H](Cc1ccccc1)C(=O)N[C@@H](Cc1ccccc1)C(N)=O
B2: 0748-09FA (peptide)
peptide: Ac-KWH[Orn(fluoroacetimidoyl)]DFF-NH2
SMILES: CC(=O)N[C@@H](CCCCN)C(=O)N[C@@H](Cc1c[nH]c2ccccc12)C(=O)N[C@@H](Cc1c[nH]cn1)C(=O)N[C@@H](CCCNC(=N)CF)C(=O)N[C@@H](CC(=O)O)C(=O)N[C@@H](Cc1ccccc1)C(=O)N[C@@H](Cc1ccccc1)C(N)=O
B3: 0748-01FA (peptide)
peptide: Ac-HFD[Orn(fluoroacetimidoyl)]EWI-NH2
SMILES: CC[C@H](C)[C@H](NC(=O)[C@H](Cc1c[nH]c2ccccc12)NC(=O)[C@H](CCC(=O)O)NC(=O)[C@H](CCCNC(=N)CF)NC(=O)[C@H](CC(=O)O)NC(=O)[C@H](Cc1ccccc1)NC(=O)[C@H](Cc1c[nH]cn1)NC(C)=O)C(N)=O
B4: 0748-25FA (peptide)
peptide: Ac-KHD[Orn(fluoroacetimidoyl)]DFL-NH2
SMILES: CC(=O)N[C@@H](CCCCN)C(=O)N[C@@H](Cc1c[nH]cn1)C(=O)N[C@@H](CC(=O)O)C(=O)N[C@@H](CCCNC(=N)CF)C(=O)N[C@@H](CC(=O)O)C(=O)N[C@@H](Cc1ccccc1)C(=O)N[C@@H](CC(C)C)C(N)=O
B5: 0748-17FA (peptide)
peptide: Ac-KLH[Orn(fluoroacetimidoyl)]EWM-NH2
SMILES: CSCC[C@H](NC(=O)[C@H](Cc1c[nH]c2ccccc12)NC(=O)[C@H](CCC(=O)O)NC(=O)[C@H](CCCNC(=N)CF)NC(=O)[C@H](Cc1c[nH]cn1)NC(=O)[C@H](CC(C)C)NC(=O)[C@H](CCCCN)NC(C)=O)C(N)=O

These binders were tested against T2, recombinant human PAD2 (human, UniProt Q9Y2J8 1-665) (assay: cell-based or functional assay).
T2 sequence (Q9Y2J8 whole entry): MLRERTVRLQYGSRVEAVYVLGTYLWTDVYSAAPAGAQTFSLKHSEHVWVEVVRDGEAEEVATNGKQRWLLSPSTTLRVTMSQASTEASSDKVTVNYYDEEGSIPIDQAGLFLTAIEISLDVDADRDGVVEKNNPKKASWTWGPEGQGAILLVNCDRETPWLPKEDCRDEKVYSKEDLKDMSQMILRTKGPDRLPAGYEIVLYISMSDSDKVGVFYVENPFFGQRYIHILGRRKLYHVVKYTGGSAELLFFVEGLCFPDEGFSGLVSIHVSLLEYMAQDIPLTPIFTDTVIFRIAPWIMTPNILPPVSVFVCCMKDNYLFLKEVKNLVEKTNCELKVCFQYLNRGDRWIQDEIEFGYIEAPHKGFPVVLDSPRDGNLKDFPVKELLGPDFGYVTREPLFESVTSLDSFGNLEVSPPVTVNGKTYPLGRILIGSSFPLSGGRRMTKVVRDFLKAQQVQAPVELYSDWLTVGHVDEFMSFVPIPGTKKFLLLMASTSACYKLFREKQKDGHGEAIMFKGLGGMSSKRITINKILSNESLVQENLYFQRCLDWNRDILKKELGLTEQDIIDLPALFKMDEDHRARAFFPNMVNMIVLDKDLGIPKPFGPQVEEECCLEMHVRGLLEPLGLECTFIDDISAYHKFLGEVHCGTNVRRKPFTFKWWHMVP

Binder	Inhibition of PAD2: value at 10 µM inhibitor (0 µM: 76)	Inhibition of PAD2: value at 20 µM inhibitor (0 µM: 76)	Inhibition of PAD2: value at 40 µM inhibitor (0 µM: 76)	Inhibition of PAD2: value at 80 µM inhibitor (0 µM: 76)
B1	9%	3%	2%	1%
B2	25%	14%	8%	4%

These binders were tested against transglutaminase (assay: cell-based or functional assay).

Binder	IC50 values (µM), transglutaminase activity assay
B2	> 1000 µM

These binders were tested against creatine kinase (assay: cell-based or functional assay).

Binder	IC50 values (µM), creatine kinase activity assay
B2	1000 µM

The binders below were run against T1, papain (assay: cell-based or functional assay).

Binder	IC50 values (µM), papain activity assay
B2	> 2000 µM

These binders were tested against caspase-3 (assay: cell-based or functional assay).

Binder	IC50 values (µM), caspase-3 activity assay
B2	> 1000 µM

These binders were tested against T3, recombinant human PAD4 (human, UniProt Q9UM07 1-663) (assay: cell-based or functional assay).
T3 sequence (Q9UM07 whole entry): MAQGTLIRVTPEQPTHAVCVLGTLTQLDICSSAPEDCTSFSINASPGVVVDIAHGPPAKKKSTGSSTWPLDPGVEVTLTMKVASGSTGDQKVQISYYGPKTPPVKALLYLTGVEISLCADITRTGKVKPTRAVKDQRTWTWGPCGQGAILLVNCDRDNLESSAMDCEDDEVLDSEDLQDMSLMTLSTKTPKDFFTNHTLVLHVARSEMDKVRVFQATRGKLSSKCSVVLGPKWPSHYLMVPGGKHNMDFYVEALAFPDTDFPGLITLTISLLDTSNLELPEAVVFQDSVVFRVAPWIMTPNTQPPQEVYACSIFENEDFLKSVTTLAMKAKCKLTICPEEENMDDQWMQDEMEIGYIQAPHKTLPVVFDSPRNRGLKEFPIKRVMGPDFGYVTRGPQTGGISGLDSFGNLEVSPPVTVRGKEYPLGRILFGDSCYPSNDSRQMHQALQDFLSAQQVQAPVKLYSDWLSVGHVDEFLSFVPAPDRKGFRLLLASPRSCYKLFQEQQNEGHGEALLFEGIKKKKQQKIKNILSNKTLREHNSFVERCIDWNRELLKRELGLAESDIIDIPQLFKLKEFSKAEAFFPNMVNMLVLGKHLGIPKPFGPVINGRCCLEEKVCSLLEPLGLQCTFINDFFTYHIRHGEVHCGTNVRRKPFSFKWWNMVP

Binder	IC50 values (µM), ABAP PAD activity assay, second round
KFD[Orn(fluoroacetimidoyl)]DFI [K F D O(FA) D F I]	122 µM
GD[O(CA)]GS [G-D-O(CA)-G-S]	60 µM
KWH[Orn(fluoroacetimidoyl)]DFF [K W H O(FA) D F F]	161 µM
TD[Orn(fluoroacetimidoyl)]GS [T-D-O(FA)-G-S]	129 µM
YD[O(CA)]GS [Y-D-O(CA)-G-S]	44 µM

Molecular target: T2, recombinant human PAD2
Assay: cell-based or functional assay
Remark: another data set of the same source

Binder	IC50 values (µM), ABAP PAD activity assay, second round
KFD[Orn(fluoroacetimidoyl)]DFI [K F D O(FA) D F I]	17 µM
GD[O(CA)]GS [G-D-O(CA)-G-S]	38 µM
KWH[Orn(fluoroacetimidoyl)]DFF [K W H O(FA) D F F]	16 µM
TD[Orn(fluoroacetimidoyl)]GS [T-D-O(FA)-G-S]	49 µM
YD[O(CA)]GS [Y-D-O(CA)-G-S]	58 µM

Molecular target: T2, recombinant human PAD2
Assay: cell-based or functional assay
Remark: another data set of the same source

Binder	conversion of 0708-30 by PAD2, 10 µM inhibitor (0 µM: 68)	conversion of 0708-30 by PAD2, 50 µM inhibitor (0 µM: 68)	conversion of 0708-30 by PAD2, 100 µM inhibitor (0 µM: 68)
B2	23%	6%	5%
B3	67%	36%	21%
B4	47%	20%	11%
B5	58%	35%	24%

Molecular target: T3, recombinant human PAD4
Assay: cell-based or functional assay
Remark: another data set of the same source

Binder	conversion of 0708-30 by PAD4, 10 µM inhibitor (0 µM: 81)	conversion of 0708-30 by PAD4, 50 µM inhibitor (0 µM: 81)	conversion of 0708-30 by PAD4, 100 µM inhibitor (0 µM: 81)
B2	51%	22%	13%
B3	50%	25%	12%
B4	45%	18%	12%
B5	64%	32%	18%

Molecular target: T3, recombinant human PAD4
Assay: cell-based or functional assay
Remark: another data set of the same source

Binder	Inhibition of PAD4: value at 10 µM inhibitor (0 µM: 67)	Inhibition of PAD4: value at 20 µM inhibitor (0 µM: 67)	Inhibition of PAD4: value at 40 µM inhibitor (0 µM: 67)	Inhibition of PAD4: value at 80 µM inhibitor (0 µM: 67)
B1	37%	24%	13%	7%
B2	51%	38%	27%	18%

Molecular target: T3, recombinant human PAD4
Assay: cell-based or functional assay
Remark: another data set of the same source

Binder	IC50 values (µM), ABAP PAD activity assay
GS[Orn(fluoroacetimidoyl)]DG [G-S-O(FA)-D-G]	443 µM
GS[O(CA)]DG [G-S-O(CA)-D-G]	816 µM
GD[O(CA)]SG [G-D-O(CA)-S-G]	189 µM
SS[O(CA)]DG [S-S-O(CA)-D-G]	203 µM
SS[Orn(fluoroacetimidoyl)]DG [S-S-O(FA)-D-G]	177 µM
TD[O(CA)]GS [T-D-O(CA)-G-S]	153 µM
GD[Orn(fluoroacetimidoyl)]SG [G-D-O(FA)-S-G]	178 µM
TD[Orn(fluoroacetimidoyl)]GS [T-D-O(FA)-G-S]	58 µM

Molecular target: T2, recombinant human PAD2
Assay: cell-based or functional assay
Remark: another data set of the same source

Binder	IC50 values (µM), ABAP PAD activity assay
GS[Orn(fluoroacetimidoyl)]DG [G-S-O(FA)-D-G]	18 µM
GS[O(CA)]DG [G-S-O(CA)-D-G]	172 µM
GD[O(CA)]SG [G-D-O(CA)-S-G]	76 µM
SS[O(CA)]DG [S-S-O(CA)-D-G]	55 µM
SS[Orn(fluoroacetimidoyl)]DG [S-S-O(FA)-D-G]	14 µM
TD[O(CA)]GS [T-D-O(CA)-G-S]	34 µM
GD[Orn(fluoroacetimidoyl)]SG [G-D-O(FA)-S-G]	17 µM
TD[Orn(fluoroacetimidoyl)]GS [T-D-O(FA)-G-S]	19 µM
